Reference: article PMC8421139

How the values were obtained:
Assay in all cases: EMSA
[1] = molecular target: TDRD3 E691K (UniProt A0ACI8Q7A3 1-93+Q9H7E2:1-651, E598K;internal_change)
[2] = molecular target: T1, GST-TDRD3 UBA (UniProt Q9H7E2 193-233)
T1 chain: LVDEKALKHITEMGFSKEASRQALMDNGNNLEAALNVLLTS

[3] = molecular target: GST-TDRD3 Tudor (UniProt Q9H7E2 555-615)

CCTCGCAAACTACTTAGATGTCATCCGCGAGC (ssDNA) [ssDNA probe (R-loop forward oligo)]: binds [1]; no binding [2]; no binding [3].
